Test: yeast display, Sf9 membrane polyspecificity reagent, FACS + sequencing; frameworks hold sequencing errors
Outline: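 A nanobody's polyreactivity label depends on the gate it was sorted from. Yeast display cells were stained with 10% biotinylated, detergent-solubilized Sf9 membrane reagent for 1 hour at 4 °C, enriched on streptavidin microbeads and sorted by FACS. The low and high (top ~1%) gates were set on anti-HA fluorescence for expression and streptavidin fluorescence for reagent binding.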

Question: For “QVQIVESGGGLVQAGGSLRLSCAASGRTFRTYAMGWSRPAPGKEREMVAAIRSNAGSTYYADSVKGRFTISRDNAKNTVYLQMHSLKPEDTAVYYCAKSYRSSRRYNYWGQGTQVTVSS”, which “polyreactivity (PSR sort gate)” value is on record?
Answer: high polyreactivity

Question: Which “polyreactivity (PSR sort gate)” value does the source give for “QVQIVESGGGLVQAGGSLRLSCAASGRTFTHYAMGWYRQAPGKERELVAAISSGGGTYYADSVKGRFTIARDNAKKTVYLQMNSLKPEDTAVYYCNADYSNYLDPFRTYGYWGQGTQVTVSS” here?
Answer: low polyreactivity

Question: For “QVQIVESGGGLVQAGGSLRLSCAASGRTLRYYSMGWYRQAPGKERELVAAISGSGGRTYYADSVKGRFTISRDNAKNTVYLQMNSLKPVDTAVYYCAKRYYRTAGDMDYWGLGTQVTVSS”, which “polyreactivity (PSR sort gate)” value is on record?
Answer: high polyreactivity

Question: For “QVQIVESGGGLVQAGGSLRLSCAASGSIFGPYVMGWYRQAPGKERELVAAISKSRGSTYYADSVKGRFTISRDNAKNTVYLQMNSLKPEDTAVYYCATDYLGGGKRYYYWGQGTQVTVSS”, which “polyreactivity (PSR sort gate)” value is on record?
Answer: high polyreactivity

Question: With “QVQIVESGGGLVQAGGSLRLSCAASGSIFGYAMGWYRPAPGKERELVAAISFSGVSTYYADSVKGRFTISRDNAKNTVYLQMNSLKPEDTAVYYCNAYSDGDEDYWGQGTQVTVSS” as the sequence, how does the “polyreactivity (PSR sort gate)” value read?
Answer: low polyreactivity

Question: Which “polyreactivity (PSR sort gate)” value does the source give for “QVQIVESGGGLVQAGGSLRLSCAASGSIFQFYAMGWSRQAPGKERELVAVITTSGVSTYYADSVKGRFTISRDNAKYTVYLQMNSLKPEDTAVYYCAADDYYLAGDYWGQGTQVTVSS” here?
Answer: low polyreactivity

Question: For “QVQIVESGGGLVQAGGSLRLSCAASGSIFVVNAMGWYRQAPRKERELVAAIDWSGDTTYYADSEKGRFTISRDYAKNTVYFQMNSLKPEDTAVYYCAAEYEFHEYDYWGQGTQVTVSS”, which “polyreactivity (PSR sort gate)” value is on record?
Answer: high polyreactivity

Question: With “QVQIVESGGGLVQAGGSLRLSCAASGSTFARNAMGWYRQAPGKEREFVASIRWGGVSTYYADSVKGRFTISRDNAKNTVYLQMNSLKPEDTAVYYCATGRKNAAQRWGYYYWGQGTQVTVSS” as the sequence, how does the “polyreactivity (PSR sort gate)” value read?
Answer: high polyreactivity

Question: With “QVQIVESGGGLVQAGGSLRLSCAASGSTFGGNAMGWYRQAPGKERDLVAVISKRGGSKYYADSVKGRFTISRDNAKNTVYLQMNSLKPEDTAVYYCAATYSRYWSPTYDYWGQGTQVNVSS” as the sequence, how does the “polyreactivity (PSR sort gate)” value read?
Answer: high polyreactivity

Question: With “QVQIVESGGGLVQAGGSLRLSCAASGSTFGRYAMGWYRQAPGKEREMVAAISASGGSTYYADSVKGRFTISRDYAKNTVYVQMNSLKPEDTAVYYCAALIDVITCQYDYWGHGTQVTVSS” as the sequence, how does the “polyreactivity (PSR sort gate)” value read?
Answer: high polyreactivity

Question: For “QVQIVESGGGLVQAGGSLRLSCAASGSTFRRYVMGWYRQAPGKERELVAAISWSGTSTNYADSLKGRFTISRDNAKNTVYLHMNSLKPEDTAVYYCATQSLYYRWGLDYCGQGTQVTVSS”, which “polyreactivity (PSR sort gate)” value is on record?
Answer: high polyreactivity

Question: Which “polyreactivity (PSR sort gate)” value does the source give for “QVQIVESGGGLVQAGGSLRLSCAASGSTFTFYAMGSYRQAPGKERELVASITQSTGSTHYADSVKGRFTISRDNEKNTVFLQMNSLNPEDTAVYYCKAQKIVYYLVTLFPYYYWGQGSQVTVSS” here?
Answer: low polyreactivity

Question: With “QVQIVESGGGLVQAGGSLRLSCAASGYIFPYYAMGWYRQAPGKERELVAGITTDGSSTYYADSVKGRFTISRDNAKNTVYLQMNSLNPEDTAVYYFYVYPGYTWGWYDYWGQGTQVTVSS” as the sequence, how does the “polyreactivity (PSR sort gate)” value read?
Answer: low polyreactivity

Question: For “QVQIVESGGGLVQAGGSLRLSCAASGYIFSVYAMGWYRQAPGKERELVAAITFRTGRTYYADSVKWRFTISRDNAKNTVYLQMNSLKPEDTAVSYCAADGYWTTFYNLYGYWGQGTQVTVSS”, which “polyreactivity (PSR sort gate)” value is on record?
Answer: high polyreactivity

Question: With “QVQIVESGGGLVQAGGSLRLSCADSGRIFYLYDMGWYRQAPGKERELVATISCSGGSTYYADSVMGRFTISRDNAKNTVYLQMNSLKPEDTALYYCAAVSVSSWYDYWGQGTQVTVSS” as the sequence, how does the “polyreactivity (PSR sort gate)” value read?
Answer: low polyreactivity

Question: With “QVQIVESGGGLVQAGGSLRLSCASSGRIFHRYAMGWYRQAPGKERELVAAISYSTARTYYADSVKGRFTISRDNAKNTVYLQMNSLKPEDTAVYYCAAKDERRSFGMGYWGQGTQVTVSS” as the sequence, how does the “polyreactivity (PSR sort gate)” value read?
Answer: high polyreactivity

Question: With “QVQIVESGGGLVQAGGSLRLSCPASGGIFTKNAMGWYRQAPGKERELVAGISRTGGNTYYADSVKGRFTISRDNAKNNVYLQMKSLKPEDTAVYYCKALYGGPHRLRYDYWGQGTQVTVSS” as the sequence, how does the “polyreactivity (PSR sort gate)” value read?
Answer: low polyreactivity

Question: With “QVQIVESGGGLVQAGGSLRLSGAASGLIFKYYDMGWSRQAPGKERELVASISRSGGRTYYADSVMGRFTISRDNAMNTVYLQMNSLKPEDTAVYYCNADTWLYWDGDDYWGQGTQVTVSS” as the sequence, how does the “polyreactivity (PSR sort gate)” value read?
Answer: high polyreactivity

Question: Which “polyreactivity (PSR sort gate)” value does the source give for “QVQIVESGGGLVQAGGSLRLTCAASGFTFGPYAMGWYRQEPGKERELVAAITVNGSSTYADSVKGRFTISRDNAKNTVVLQMNSLKPEDTAVYYCAATVYPGGPYGGDSDYWGQGTQVTVSS” here?
Answer: low polyreactivity

Question: Which “polyreactivity (PSR sort gate)” value does the source give for “QVQIVESGGGLVQAGGSLRLTCAASGLTFTGNAMGWYIQAPGKERELVAAISWSGGSKYYADSVKGRYTISRDNAKNTVYLQMNSLQPEDTAVYYCADPDARYDYWGQGTQVTVSS” here?
Answer: high polyreactivity

Question: Which “polyreactivity (PSR sort gate)” value does the source give for “QVQIVESGGGLVQAGGTLRISCAASGFTLYYYAMGWSRQAPGKERELVAAITSSGTSTYYADSVKGRFTISRDNAKNTVYLQMNSLKPEDTAVYYCAAVSKIYHYRAVRLDDYWGQGTQVSVSS” here?
Answer: low polyreactivity

Question: For “QVQIVESGGGLVQAGRSLRLSCAASGFIFFPYVMGWYRPAPVKERELVARITSGGGSTYYADSVKGRFSISRDNAKNTVYLEMYSLKPEDTAVYYCAARFRFPPSYDYWGQCTQVTVSS”, which “polyreactivity (PSR sort gate)” value is on record?
Answer: high polyreactivity

Question: For “QVQIVESGGGLVQAGRSLRLSCAASGIIFRRYAMGWYRQAPGKETELVAAISSRGGSTYYADSVKGRFTISRDNAKNTVYLQMNSLKPEDTAVYYCAKGFSGTGGSGDFGYWGQGTQVTVSS”, which “polyreactivity (PSR sort gate)” value is on record?
Answer: high polyreactivity

Question: For “QVQIVESGGGLVQAGRSLRLSCAASGRTFYRNAMGWYRQAPGKERELVAAITWRTGNTYFADSVKGRFTISRDNAKNTVYLQMNSLKQEDTAVYYCNRVPYYGHPFRVSGDYWGQCTQVTVSS”, which “polyreactivity (PSR sort gate)” value is on record?
Answer: low polyreactivity

Question: Which “polyreactivity (PSR sort gate)” value does the source give for “QVQIVESGGGLVQAGRSLSLSCAASGYTFLPNVMGWYRQAPGKERELVAAIYSRGGRTYYADSVKGRFTISRDNAKNTVYLQMNSLKPEDTAVYYCAAYTRYTTGSAGIYRDDYWGQGTQVTVSS” here?
Answer: high polyreactivity

Question: Which “polyreactivity (PSR sort gate)” value does the source give for “QVQIVESGGGLVQAGVSLRLSCAASGRTSDGYAMGWYRQAPGKESELVAGITEGGGDTYYADSVKGRFTISRDNAKNTVYLQMNSLKPEDTAVYYCNAVEGSRLPYDYWGQGTQVTVSS” here?
Answer: low polyreactivity

Question: With “QVQIVESGGGLVQPGCSLRLSCAASGRIFYVYAMGWYRQAPGTEWELVASITNGGRTNYADSVKGRFTISRDNAKNTFYLQMNSLKPEDTAVYYCATAASNYLDYVGKYRYDYWVQGTQVTVSS” as the sequence, how does the “polyreactivity (PSR sort gate)” value read?
Answer: low polyreactivity

Question: Which “polyreactivity (PSR sort gate)” value does the source give for “QVQIVESGGGLVQSGGSLRLSCAASGIIFSSNAMGWYRQAPGKERELVAAISRRGGSTYYADSVKGRFTISRDKAKNTVYLQMNSLKPEDTAVYYFIALLYNVAGYDYWGQGTQVTVSS” here?
Answer: high polyreactivity

Question: Which “polyreactivity (PSR sort gate)” value does the source give for “QVQIVESGGGVVQAGGSLRLSCAASGLIFPAYTMGWYRQAPGKERELVAAISRSGGSTYYADSVKGRFTISRDNAKNTVSLQMNSLNPEDTAVYYCAAQGYFVDRAGRYYRGDYWGQGTQVTVSS” here?
Answer: high polyreactivity

Question: With “QVQIVESVGGLVQAGGSLRLSCAASGRTFPYYAKGRYRQAPGKEREMVATISTADSTYYADSVKGRFTISRDNAKNTVYLQMNRLITEATEVYYCAKDRYTYWSVHAFRRLDYWGQGTQLTVSS” as the sequence, how does the “polyreactivity (PSR sort gate)” value read?
Answer: low polyreactivity

Question: For “QVQLADSGGGLVQAGGSLRLICAASGSIIRNKAMGWYRQAPGKERELVAAITSTGTGTYYADSVKGRFTISRDYAKNTVYLQMNRVKPEDPAVYYCAVDDEFEFGYWGQGTQVTVSS”, which “polyreactivity (PSR sort gate)” value is on record?
Answer: low polyreactivity

Question: Which “polyreactivity (PSR sort gate)” value does the source give for “QVQLAESGRGLVQAGGSLRLSCADSGIIYYFYAMGWYRQAPGKETEFVAAISGTGGRTYYADSVKGRFTISRDNAKNTVYLQMNSLKPEDTAVYYCNADDTPVPSIRFDYWGQGTQVTVSS” here?
Answer: low polyreactivity

Question: With “QVQLAETGGGLVQAGGSLRLSCAASGSTFSVYAMGWYRQSPGKERELVATIPRGGSTYADSVKGRLTISRDNAKNTVYLQMNSLKPEDTAVYYCAADAYVSSQPMDYWGQGTQVTVSS” as the sequence, how does the “polyreactivity (PSR sort gate)” value read?
Answer: high polyreactivity

Question: Which “polyreactivity (PSR sort gate)” value does the source give for “QVQLEDSGGGLVQAGGSLRLSCAASGFTFYSNAMGWYRQAPGKERELVAAITRGGGSTYYADSVKGRFTISRDNAKNTVYLQMNSLKPEDTAVYYCAAEMFAPYRSTYDYWGQGTQVTVSS” here?
Answer: low polyreactivity

Question: For “QVQLEEAGGGLVQAGGSLSLSCAASGSILKVYAMGWSRQAPGQERELVAGNTRAGGSTNDADSVKGRFTISRDYAKNTVLLQMNSLKPEDTPVYYCAGRLKCYRRRDYWGQGTQVSVSS”, which “polyreactivity (PSR sort gate)” value is on record?
Answer: high polyreactivity

Question: Which “polyreactivity (PSR sort gate)” value does the source give for “QVQLEESAGGLVQAGGSLRLSCAASGRTFRRYAMGWYRPAPGKERELVAVISSGGRTNYADSVKGRFTISRDNAKNTVYLQLNSLKPEDTAVYYCNAGPLYSGVYSGYFWGQGTQVTVSS” here?
Answer: high polyreactivity

Question: With “QVQLEESCGGLVQAGGSLRLSCAASGSTFTIYAMGWYRQAPGKERELVAVISSSGGSTYYADSVKGRFTISRDNAKNTVYLQMNSLKPEDTAVYYCAADTRYFGGYLTLYYWGQGTQVTVSS” as the sequence, how does the “polyreactivity (PSR sort gate)” value read?
Answer: low polyreactivity

Question: With “QVQLEESGAGLVQAGCSLRLSCAASGSTLFNNAMGWYRQAPGKERELVAAITFSGASTYYADSVKGRFTISRDNAKNTVYLQMNSLKPEDTAVYYCGADPSFNYIPVYYFDYDYWGQATQVTVSS” as the sequence, how does the “polyreactivity (PSR sort gate)” value read?
Answer: low polyreactivity

Question: Which “polyreactivity (PSR sort gate)” value does the source give for “QVQLEESGAGLVQAGGSLRLCCAASGNTFSSNAMGLYTQAPGKEMELVAGITKSGGRTYYADSVKGRFTISRDNAQYTVYLHMNSLKPEDSAVFYCNRRAGPFSIQYYYWGQVTQVTVSS” here?
Answer: high polyreactivity

Question: With “QVQLEESGAGLVQAGGSLRLSCAASGITFYYNDMGWYRQAPGKEREMVASISGDGGSTYYADSVKGRFTISRDNAKNTVYLQMNSLKPEDTAVFYCAASAGYYEVLYDYWGQGTQVTVSS” as the sequence, how does the “polyreactivity (PSR sort gate)” value read?
Answer: low polyreactivity

Question: With “QVQLEESGGALVQAGGSLRISCAASGSTFYYNAMGWYRQAPGKERELVAVITLNGGRTSYADSVKGRFTISRDNAKNTVYLQMNSLKPEDSAVYYCAADRYRGYGYWGQGTQVTVSS” as the sequence, how does the “polyreactivity (PSR sort gate)” value read?
Answer: low polyreactivity

Question: Which “polyreactivity (PSR sort gate)” value does the source give for “QVQLEESGGGIVQAGGSLRLSCAASGRTFVTNAMGWYRKAPGKERELVATINWSGGRTHYADSVKGRFTISRDNAKNTVYLQMNSLKPEDTAVYYCAKASSRRYWTIRDGDYWGQGTQVSVSS” here?
Answer: low polyreactivity

Question: For “QVQLEESGGGIVQAGGSLRLSCDASGRIFVQYAIGCYRQEPGKEMELVAAISGSGGRTYYADSVKGSFTISRDTAKNTVYLQMNSLKPEDTAVYYCAARYTTGLSFWKPYYYWGQGTQVTVSS”, which “polyreactivity (PSR sort gate)” value is on record?
Answer: high polyreactivity

Reference: the nanobody polyreactivity screen of Harvey et al. (2022)
